Reference: patent US7592307B2, “Releasable linkage and compositions containing same” (Alza Corporation, priority 1999, dated 2009)

Assays:
[1] = Blood lysozyme concentration after intravenous or subcutaneous administration; type: in vivo; details: rats
Method: The mPEG12000-MeDTB-lysozyme conjugates were administered in vivo to rats to characterize the in vivo behavior of the conjugate and its ability to cleave under physiologic conditions. In a first study, nine rats were divided into three test groups for administration of PEG-lysozyme, PEG-MeDTB-lysozyme, or free lysozyme. The test compound was administered intravenously or subcutaneously and blood samples were taken at defined times for analysis of blood lysozyme concentration.

bovine serum albumin = bovine serum albumin (Bos taurus, UniProt P02769); assay: Cleavage of mPEG-DTB-lysozyme by albumin (SDS-PAGE stained for PEG); type: physicochemical; details: treated with bovine serum albumin
Excerpt: In another set of studies, it was shown that the thiol group of albumin was acting as the cleaving agent. Albumin is an abundant protein-thiol in plasma (Kratz, F. et al. J. Med. Chem., 45:5523 (2002)). The SDS-PAGE gel from this study is shown in FIG. 16B, where Lanes 1-12 were as follows:
The gel was stained for visibility of PEG. […] Lane 10 corresponds to mPEG-DTB-lysozyme treated with albumin and no spot on the gel corresponding to the mPEG-DTB-lysozyme conjugate is visible (compare to Lane 11), nor is a spot corresponding to released PEG visible (compare to Lane 4).

[2] = Thiolytic cleavage of PEG-lysozyme conjugates (SDS-PAGE, RP-HPLC); type: physicochemical; details: for cleavage under reducing SDS-PAGE conditions: 2% β-mercaptoethanol, 10 minutes at 70° C.
Method: In a study performed in support of the invention, lysozyme was used as a model polypeptide. As described in Example 8, lysozyme was incubated with mPEG-MeDTB-nitrophenylcarbonate in 0.1 M borate, at pH 9, at a 2:1 ratio of nitrophenylcarbonate to amino group of lysozyme. After reactions times of 15 minutes and 3 hours, separate samples were characterized by SDS-PAGE. A comparative conjugate was prepared by reacting lysozyme under the same conditions for 60 minutes with mPEG-nitrophenyl carbonate, which will form a stable mPEG-lysozyme conjugate.
Lanes 6-9 of the gel correspond to the samples in Lanes 1-4, but under reducing SDS-PAGE conditions, after treatment with 2% β-mercaptoethanol for 10 minutes at 70° C. […] In contrast, the stable mPEG-lysozyme conjugate was not affected upon incubation with a reducing agent, as evidenced by the agreement in the profile in Lane 9 and Lane 4.
A similar study was done using cysteine as a reducing agent on a purified mPEG5000-MeDTB-lysozyme conjugate. The results of the SDS-PAGE profile are shown in FIG. 12B, where an mPEG-MeDTB-lysozyme conjugate (Lane 1) treated with 1 mM cysteine (Lane 2), 5 mM cysteine (Lane 3), and 50 mM cysteine (Lane 4) are shown. Also shown are an mPEG-lysozyme conjugate (no cleavable linkage) before (Lane 5) and after treatment (Lane 6) with 50 mM cysteine. Lysozyme before (Lane 7) and after (Lane 8) with 50 mM cysteine are also shown. Lane 9 corresponds to protein markers.
Example 8 describes the methodology of the reverse-phase HPLC analysis. The trace at the bottom of FIG. 13A corresponds to neat lysozyme.
Reverse-phase HPLC analysis. RP-HPLC separation of PEG-lysozyme conjugates was achieved on a Vydac™ Protein C4 (4.6×150 mm) column eluted at 1 ml/min with aqueous acetonitrile gradient as follows. Each chromatography run started with a mobile phase A (30% acetonitrile, 5% 0.1 M sodium acetate pH 5, and 65% H2O), and over a period of 40 min ended with a mobile phase B (50% acetonitrile, 50% 0.1 M sodium acetate pH 5). UV detector set at 280 nm was used to monitor the chromatography. SDS-PAGE. Polyacrylamide gel electrophoresis under denaturing conditions was performed for conjugates characterization. Pre-cast NuPAGE® Bis-Tris gels (4-15%), NuPAGE®MES running buffer, molecular weight protein standards (Mark 12™), and Colloidal Coomassie® G-250 staining kit, were all obtained from Invitrogen, Carlsbad, Calif. […] Aliquots were taken out from the reaction vial at various time points and analyzed by RP-HPLC as described above (see FIG. 13A). […] Purified PEG-DTB-lysozyme containing only one PEG moiety per lysozyme was treated with 1 mM cysteine while the reaction was monitored by LC-MS. […]

bacterial cell wall = assay: Bacterial cell wall lysis turbidometric assay of enzyme activity; type: biochemical; details: after treatment with 1 mM cysteine
[3] = Cleavage of mPEG-MeDTB-lysozyme in plasma (SDS-PAGE stained for PEG); type: in vitro ADME; details: plasma for 18 hours
Method: The samples were stained with iodine, for PEG visualization. Lane 1 corresponds to mPEG5000-MeDTB-lysozyme, Lane 2 corresponds to mPEG5000-MeDTB-lysozyme in cysteine buffer, Lane 3 corresponds to mPEG5000-MeDTB-lysozyme in plasma for 18 hours, Lane 4 corresponds to mPEG5000-MeDTB-lysozyme with 1,4-dithio-DL-threitol (DTT) added, Lane 5 is a plasma sample control, and Lane 6 is PEG molecular weight markers. […] Free PEG is liberated after treatment with low molecular weight thiol, such as DTT.

bovine serum albumin, sequence (P02769 25-607): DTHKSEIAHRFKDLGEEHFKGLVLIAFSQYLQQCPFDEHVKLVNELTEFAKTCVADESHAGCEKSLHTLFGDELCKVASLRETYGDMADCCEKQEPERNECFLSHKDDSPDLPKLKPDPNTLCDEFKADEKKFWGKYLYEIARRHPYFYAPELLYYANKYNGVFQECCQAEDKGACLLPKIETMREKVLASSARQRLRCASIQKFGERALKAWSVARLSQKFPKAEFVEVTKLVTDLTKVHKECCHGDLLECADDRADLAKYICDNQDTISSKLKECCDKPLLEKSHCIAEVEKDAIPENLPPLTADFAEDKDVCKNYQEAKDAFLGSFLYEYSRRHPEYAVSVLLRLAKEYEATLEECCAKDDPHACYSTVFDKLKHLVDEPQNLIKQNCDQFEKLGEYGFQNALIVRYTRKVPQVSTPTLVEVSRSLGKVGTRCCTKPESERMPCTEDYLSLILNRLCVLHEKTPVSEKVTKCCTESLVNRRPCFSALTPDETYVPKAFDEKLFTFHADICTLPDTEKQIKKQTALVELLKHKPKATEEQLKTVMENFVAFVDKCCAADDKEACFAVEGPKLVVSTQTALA

With lysozyme: model polypeptide the T1/2α ([1]; intravenous) was 0.25 h, the T1/2β ([1]; intravenous) was 24.1 h and the blood concentration decrease ([1]; intravenous, within one hour after administration) was “more than 10 fold”.

Work on PEG12000-lysozyme [reference compound] yielded a T1/2α ([1]; intravenous) of 2.17 h and a T1/2β ([1]; intravenous) of 32.9 h.

In the case of mPEG5000-MeDTB-lysozyme, the cleavage by albumin (bovine serum albumin) is reported as “cleaved by the albumin”, the “cleavage and release of lysozyme (RP-HPLC)” value ([2]; 1 mM cysteine, 30 minute time point) is reported as “near completion” and the “cleavage under reducing SDS-PAGE conditions” value [2] is reported as “decomposed to regenerate native lysozyme”. For the same substance, the “cleavage by cysteine (SDS-PAGE stained for PEG)” value ([2]; treated with cysteine) was “cleaved in the presence of cysteine”, the “cell-lysing (enzymatic) activity after thiolysis” value (“cell-lysing (enzymatic) activity” for short) (bacterial cell wall) was “nearly all” and the “cell-lysing (enzymatic) activity” value (bacterial cell wall; listed as mPEG-DTB-Lysozyme) was “Recovery of enzymatic activity”. The cleavage in plasma [3] was “cleaved in plasma”.

In the case of mPEG-lysozyme [reference compound], the “cleavage under reducing SDS-PAGE conditions” value [2] is reported as “not affected” and the “cell-lysing (enzymatic) activity” value (bacterial cell wall) is reported as “remained inactive”.

For PEG12000-MeDTB-lysozyme, the T1/2α ([1]; intravenous) was 3.71 h, the T1/2β ([1]; intravenous) was 37.2 h and the “bioavailability (AUC)” value ([1]; subcutaneous) was “best bioavailability”.
